Experimental data as given in paper PMC9445081, “Structural basis for recognition of N-formyl peptides as pathogen-associated molecular patterns” (Nature Communications, 2022).
Substitutions are numbered along the chain they refer to. Where no end group is shown, it is not given here. The star is where a group is joined. For = O=C*

What was measured:
FPR1 [1] = conditions: cited from earlier work
FPR1 [2] = conditions: non-formyl MLF versus fMLF; cited from earlier work
FPR1 F102A = target: T1, FPR1 F102A (human, UniProt P21462 1-350, F102A); test: cell-based or functional assay
T1 sequence (looked up): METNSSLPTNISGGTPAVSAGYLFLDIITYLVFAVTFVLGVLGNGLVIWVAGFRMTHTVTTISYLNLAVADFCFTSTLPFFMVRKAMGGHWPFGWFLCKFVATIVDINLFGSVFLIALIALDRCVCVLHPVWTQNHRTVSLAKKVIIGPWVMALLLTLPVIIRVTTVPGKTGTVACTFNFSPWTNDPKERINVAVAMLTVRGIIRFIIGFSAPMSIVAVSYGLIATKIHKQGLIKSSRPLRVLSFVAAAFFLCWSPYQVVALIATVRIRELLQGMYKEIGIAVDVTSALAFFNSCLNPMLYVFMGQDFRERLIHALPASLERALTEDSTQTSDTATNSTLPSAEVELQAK

FPR1 L109A = target: T2, FPR1 L109A (human, UniProt P21462 1-350, L109A); test: cell-based or functional assay
T2 sequence (looked up): T1 sequence (looked up) with A102F, L109A

FPR1 F110A = target: T3, FPR1 F110A (human, UniProt P21462 1-350, F110A); test: cell-based or functional assay
T3 sequence (looked up): T1 sequence (looked up) with A102F, F110A

FPR1 T265A = target: T4, FPR1 T265A (human, UniProt P21462 1-350, T265A); test: cell-based or functional assay
T4 sequence (looked up): T1 sequence (looked up) with A102F, T265A

FPR1 V283A = target: T5, FPR1 V283A (human, UniProt P21462 1-350, V283A); test: cell-based or functional assay
T5 sequence (looked up): T1 sequence (looked up) with A102F, V283A

FPR1 F291A = target: T6, FPR1 F291A (human, UniProt P21462 1-350, F291A); test: cell-based or functional assay
T6 sequence (looked up): T1 sequence (looked up) with A102F, F291A

[3] = target: T7, WT FPR1 expressed in HeLa cells (human, UniProt P21462 1-350); test: cell-based or functional assay
T7 sequence (looked up): T1 sequence (looked up) with A102F

FPR1 F81A = target: T8, FPR1 F81A (human, UniProt P21462 1-350, F81A); test: cell-based or functional assay
T8 sequence (looked up): T1 sequence (looked up) with F81A, A102F

[4] = target: T9, Gαi (α subunit of the Gi1 heterotrimer) (human, UniProt P63096 1-354); test: cryo-EM structure; conditions: both partners purified
T9 construct: Gαi of the Gi1 heterotrimer, human cDNA; The same chain as the first chain of m4; source: Trichoplusia ni Hi5 insect cells (baculovirus), purified as part of the Gi1 heterotrimer (Ni-NTA)
T9 sequence (P63096 whole entry, one chain of several): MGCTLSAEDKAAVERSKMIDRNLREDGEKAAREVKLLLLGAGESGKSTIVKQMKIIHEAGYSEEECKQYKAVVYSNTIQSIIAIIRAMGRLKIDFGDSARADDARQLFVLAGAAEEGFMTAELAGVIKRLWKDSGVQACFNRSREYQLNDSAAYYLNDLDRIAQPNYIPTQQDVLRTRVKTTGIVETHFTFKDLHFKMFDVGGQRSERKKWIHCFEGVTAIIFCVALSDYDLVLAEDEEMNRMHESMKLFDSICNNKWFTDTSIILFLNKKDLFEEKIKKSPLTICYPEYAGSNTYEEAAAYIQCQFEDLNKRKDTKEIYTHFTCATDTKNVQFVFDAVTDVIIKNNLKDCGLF

Molecule: tBoc-MLF
- pharmacological property at FPR1 (FPR1 [1]): antagonist

Molecule: Met-Leu-Phe [MLF]
- orders of magnitude less potent in FPR1 binding (FPR1 [2]): 3 orders of magnitude

Molecule: For-Met-Leu-Phe [fMet-Leu-Phe (fMLF)]
- pEC50 of inhibition of forskolin-elevated cAMP, transfected HeLa cells (FPR1 F102A): 8.5
- pEC50 of inhibition of forskolin-elevated cAMP, transfected HeLa cells (FPR1 L109A): 8.1
- pEC50 of inhibition of forskolin-elevated cAMP, transfected HeLa cells (FPR1 F110A): 8.6
- pEC50 of inhibition of forskolin-elevated cAMP, transfected HeLa cells (FPR1 T265A): 7.8
- pEC50 of inhibition of forskolin-elevated cAMP, transfected HeLa cells (FPR1 V283A): 8.8
- pEC50 of inhibition of forskolin-elevated cAMP, transfected HeLa cells (FPR1 F291A): 8.4
- pEC50 of inhibition of forskolin-elevated cAMP, transfected HeLa cells [3]: 9.1
- pEC50 of inhibition of forskolin-elevated cAMP, transfected HeLa cells (FPR1 F81A): 8.1

B1: formyl peptide receptor 1 (FPR1), N-terminal FLAG tag and C-terminal 6 x His tag (receptor, human)
chain: T1 sequence (looked up) with A102F
notes: formyl peptide receptor 1, Homo sapiens, cDNA Gene ID 2357; Solubilised in DDM/CHS and exchanged to LMNG (later LMNG/GDN/CHS); also called human FPR1; source: Sf9 insect cells (baculovirus), purified (anti-FLAG M1 resin, SEC) in detergent; not shown: FLAG, N-terminal, kept
- binding result [4]: binds
